From PMC8000408, “Inhibition of NUPR1–Karyopherin β1 Binding Increases Anticancer Drug Sensitivity” (International Journal of Molecular Sciences, 2021) come the findings set out here.

Assay [1] addresses T1, Cy5-labeled karyopherin β1 (KPNB1) (UniProt Q14974 1-876, Cy5 label (site not stated)).
T1 construct: Karyopherin β1 (KPNB1, importin β1); also called importin β1; Cy5-KPNB1
In words: single-molecule pull-down (TIRF microscopy); GST-NUPR1 immobilised; observed rate constants at various concentrations of karyopherin β1, fitted with a Michaelis-Menten equation. To be noted: both partners purified.

The target in assay [2] is T1, Cy5-labeled karyopherin β1 (KPNB1). The assay is described as follows: single-molecule pull-down (TIRF microscopy); GST-NUPR1 (100 nM) immobilised on PEG-coated quartz via neutravidin and biotin-conjugated GST-tag antibody; 5 nM Cy5-labeled KPNB1 in imaging buffer (4 mM Trolox, 0.2% glucose, 50 mM NaCl, pyranose oxidase, catalase); spots counted up to 1 h, then unbound KPNB1 washed out for dissociation; exponential fits. To be noted: both partners purified.

T1 sequence (Q14974 whole entry): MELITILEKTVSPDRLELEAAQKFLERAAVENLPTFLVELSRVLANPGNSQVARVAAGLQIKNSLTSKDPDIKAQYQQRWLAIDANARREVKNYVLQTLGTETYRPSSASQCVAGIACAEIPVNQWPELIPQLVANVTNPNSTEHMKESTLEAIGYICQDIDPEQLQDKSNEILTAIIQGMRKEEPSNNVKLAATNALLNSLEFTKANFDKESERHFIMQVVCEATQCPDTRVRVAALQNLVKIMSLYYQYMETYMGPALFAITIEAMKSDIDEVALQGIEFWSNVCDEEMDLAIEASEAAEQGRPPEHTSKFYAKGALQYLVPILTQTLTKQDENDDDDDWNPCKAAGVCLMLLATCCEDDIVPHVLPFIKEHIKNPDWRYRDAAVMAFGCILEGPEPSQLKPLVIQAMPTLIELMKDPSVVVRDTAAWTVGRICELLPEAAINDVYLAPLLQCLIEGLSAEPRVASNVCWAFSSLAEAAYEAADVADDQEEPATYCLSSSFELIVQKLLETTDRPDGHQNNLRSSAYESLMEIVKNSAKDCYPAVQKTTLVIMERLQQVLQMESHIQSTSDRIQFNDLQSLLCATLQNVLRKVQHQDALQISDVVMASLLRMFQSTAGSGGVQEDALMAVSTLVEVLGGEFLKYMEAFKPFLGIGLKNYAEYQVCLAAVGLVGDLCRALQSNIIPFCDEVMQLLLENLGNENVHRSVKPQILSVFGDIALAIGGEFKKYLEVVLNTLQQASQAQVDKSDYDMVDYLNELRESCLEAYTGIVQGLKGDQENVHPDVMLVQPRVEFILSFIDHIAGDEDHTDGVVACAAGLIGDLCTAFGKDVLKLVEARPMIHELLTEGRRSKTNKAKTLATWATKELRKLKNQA

B1: GST-NUPR1 (nuclear protein-1) recombinant protein (natural protein, UniProt O60356 1-82, looked up)
chain: MATFPPATSAPQQPPGPEDEDSSLDESDLYSLAHSYLGGGGRKGRTKREAAANTNRPSPGGHERKLVTKLQNSERKKRGARR
notes: Nuclear protein-1 (NUPR1, p8/Com-1); Held on the PEG-coated quartz surface through neutravidin and a biotin-conjugated GST-tag antibody; No catalogue number is printed; also called p8; Com-1; source: bought: NOVUS Biologicals (recombinant protein)
Broadly, the Kd is the constant that tells how readily two partners part at equilibrium. Low values mean higher affinity, high ones lower affinity. What is called koff is the rate constant with which the complex falls apart. A low value points to slow dissociation. In general, kon refers to the rate constant with which the complex forms. High values mean faster complex formation, low ones slower complex formation. In the case of B1, in assay [1], the Kd stood at 0.75 nM. In assay [2], the Kd is approximately 0.65 nM, the koff came to 0.0003 s⁻¹ and the kon stood at 467000 M⁻¹ s⁻¹.
